Data: the RNAGym collection of RNA variant scans (doi:10.1073/pnas.2313332121)
Fewer inactive variants are shown than the library holds.

B1: TPR 5TU (parent)
chain: GGAUCUUCUCGAUCUAACAAAAAAGACAAAUCUGCCACAAAGCUUGAGAGCAUCUUCGGAUGCAGAGGCGGCAGCCUUCGGUGGCGCGAUAGCGCCAACGUUCUCAACUAUGACACGCAAAACGCGUGCUCCGUUGAAUGGAGUUUAUCAUG

Variants of: B1
Test: polymerase ribozyme fitness, log enrichment relative to wild type (log ratio); higher = more active; in vitro selection for triplet polymerase activity
In short: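 Mutant libraries for each subunit of a heterodimeric triplet polymerase ribozyme were made by PCR and then transcribed. Each library underwent one round of in vitro selection in triplicate: annealing with a biotinylated primer, the partner subunit and triplets, frozen incubation at −7 °C, gel excision of extended constructs, streptavidin-bead capture and RT-PCR. Input and output libraries were Illumina-sequenced, and only genotypes with ≥10 input reads and ≥1 read per output were kept. Fitness is the logarithm, base 2, of genotype enrichment over wild-type enrichment, computed from inverse-variance-weighted replicate averages.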

Row | Variant | polymerase ribozyme fitness (log ratio)
1 | G67C C69G A91U | ≤ -4.2
2 | G62A C99U | -2.24
3 | A64U A110G | ≤ -4.2
4 | U61A G94A | -2.08
5 | U61A G86A A97U C99G A113U G152U | ≤ -4.2
6 | A66U A89G | ≤ -4.2
7 | A64G A91G C123G | ≤ -4.2
8 | G65C G68A G83A A115U G140A | ≤ -4.2
9 | A66C G71A A73G G83C U151A | ≤ -4.2
10 | U61A G143C | -2.62
11 | C63U G68A | ≤ -4.2
12 | C63U C75U C76U G80A U82A C108G C114U U148C | ≤ -4.2
13 | C63G G68C | ≤ -4.2
14 | G62U U77A G86U C99G | ≤ -4.2
15 | G67A G84U | ≤ -4.2
16 | G62C G83A | -2.25
17 | C63U U148C | -1.65
18 | U61A G80A | -2.08
19 | G67A C87U A107U C125G G126C | -4.14
20 | G62A C85A A121U U134C A137G | -3.02
21 | C63A A120U G124C | -2.49

Row | Variant | polymerase ribozyme fitness (log ratio)
22 | G62U C132A | ≤ -4.2
23 | U61A U90C C96A A115U G152U | ≤ -4.2
24 | G65U C72A C85A U135G | ≤ -4.2
25 | G67C G83A C123G | ≤ -4.2
26 | U61G C96U U144G | -1.1
27 | G65A C85A | -2.26
28 | A66C G74U G81C C87A C118A G124A | ≤ -4.2
29 | C63U G81C U82C U102G U104A C108A A150C | ≤ -4.2
30 | U61G C63A G71U G80A G94U C105G C116G U139A | ≤ -4.2
31 | A64G G86U | ≤ -4.2
32 | A66G A106G U139A | ≤ -4.2
33 | A66G U111C | ≤ -4.2
34 | A64G G83U C118A A138G | ≤ -4.2
35 | G62A A121G | -0.384
36 | U61A G84U C114U | -3.85
37 | A66G C93U A107U A138U U139A | ≤ -4.2
38 | A66U C87A A106U G143C | ≤ -4.2
39 | C63U G70A C85G A138C | ≤ -4.2
40 | U61A G83C | -3.05
41 | A64C G83C A89U U134A G141A | ≤ -4.2
42 | G67C C76U C96U C149U | ≤ -4.2

Row | Variant | polymerase ribozyme fitness (log ratio)
43 | G65U A73G G141A | ≤ -4.2
44 | A66G U82G C93A | ≤ -4.2
45 | U61A C129U | -3.55
46 | A66C G70A G71A G100U G143A U148G | ≤ -4.2
47 | A66C G92C C114U | ≤ -4.2
48 | G62C C85A C99G U151G | ≤ -4.2
49 | G67A C96A | -3.46
50 | U61C G126A | -0.237
51 | U61A U82A | -1.03
52 | U61G G92A | ≤ -4.2
53 | G62A C69U | -2.82
54 | G62A G141U | 1.11
55 | A64C C69U G84A G136U G141U | ≤ -4.2
56 | G65C C99G | ≤ -4.2
57 | U61G C99G A138G | ≤ -4.2
58 | A64G G68C A142G G143A | ≤ -4.2
59 | A66U C96A U111A A122G A138C | ≤ -4.2
60 | G65A C69G U78A U90G C96A G100A C108A U145A | ≤ -4.2
61 | G62C C63A C116G | -1.77
62 | U61A C118A | -2
63 | U61A U77A C95U A97C U139A A150G | ≤ -4.2

Row | Variant | polymerase ribozyme fitness (log ratio)
64 | A66G G83U | -3.62
65 | G62U C96U | -1.14
66 | C63A A64C | -1.46
67 | G62C C123A | -1.69
68 | U61G G136C | -2.91
69 | U61G A89U C95A C99A U109C G136A U148G C149A | ≤ -4.2
70 | A66G C93A C95A C96U C116U | ≤ -4.2
71 | C63U C103G U146G | -2.3
72 | U61A G65C C85A C96G U151C | ≤ -4.2
73 | C63A G80A C85G C96G A110G | ≤ -4.2
74 | U61A G86U | -2.99
75 | C63A A147C | 0.331
76 | C63G G67C U135G | ≤ -4.2
77 | G62A G117A U134C A150G | ≤ -4.2
78 | G67A A98U U139C U148A | ≤ -4.2
79 | U61G G83U G86A C149U | ≤ -4.2
80 | U61C C85A A121G U135A | ≤ -4.2
81 | U61A G84A G92U G100U | ≤ -4.2
82 | G62A G65A G117U U144A | -3.79
83 | G65C A66C G81A C85G A121G | -4.16
84 | C63G G81C U82A | -0.391
